Experimental data published in patent US20220089698A1 (published 2022).

How the values were obtained:
HIV gp120 Bal = HIV gp120 Bal (HIV); assay: single-point ELISA; also: test concentration or dose not given here
HIV gp120 CAAN = HIV gp120 CAAN (HIV); assay: single-point ELISA; also: test concentration or dose not given here

B1: 1.15.1-1 (antibody, human IgG1, kappa)
heavy: QVQLLQSGAAVTKPGASVRVSCEASGYNIRDYFIHWWRQAPGQGLQWVGWINPKWGQPNNPRQFQGRVSLTRHASWDFDTFSFYMDLKALRSDDTAVYFCARQRSDYWDFDVWGSGTQVTVSSASTKGPSVFPLAPSSKSTSGGTAALGCLVKDYFPEPVTVSWNSGALTSGVHTFPAVLQSSGLYSLSSVVTVPSSSLGTQTYICNVNHKPSNTKVDKKVEPKSCDKTHTCPPCPAPELLAGPDVFLFPPKPKDTLMISRTPEVTCVVVDVSHEDPEVKFNWYVDGVEVHNAKTKPREEQYNSTYRVVSVLTVLHQDWLNGKEYKCKVSNKALPLPEEKTISKAKGQPREPQVYTLPPSREEMTKNQVSLTCLVKGFYPSDIAVEWESNGQPENNYKTTPPVLDSDGSFFLYSKLTVDKSRWQQGNVFSCSVLHEALHSHYTQKSLSLSPGK
light: DIQMTQSPSSLSASVGDTVTITCQANGYLNWYQQRRGKAPKLLIYDGSKLERGVPSRFSGRRWGQEYNLTINNLQPEDIATYFCQVYEFVVPGTRLDLKRTVAAPSVFIFPPSDEQLKSGTASVVCLLNNFYPREAKVQWKVDNALQSGNSQESVTEQDSKDSTYSLSSTLTLSKADYEKHKVYACEVTHQGLSSPVTKSFNRGEC
ELISA (A450) (HIV gp120 Bal): 0.87 A450 | ELISA (A450) (HIV gp120 CAAN): 1.38 A450

B2: 1.21.1-1 (antibody, human IgG1, kappa)
heavy: QVQLLQSGAAVTKPGASVRVSCEASGYNIRDYFIHWWRQAPGQGLQWVGWINPKTGQPNNPRQFQGRVSLTRDASWDFDTFSFYMDLKALRSDDTAVYFCARQRSDYWDFDVWGSGTQVTVSSASTKGPSVFPLAPSSKSTSGGTAALGCLVKDYFPEPVTVSWNSGALTSGVHTFPAVLQSSGLYSLSSVVTVPSSSLGTQTYICNVNHKPSNTKVDKKVEPKSCDKTHTCPPCPAPELLAGPDVFLFPPKPKDTLMISRTPEVTCVVVDVSHEDPEVKFNWYVDGVEVHNAKTKPREEQYNSTYRVVSVLTVLHQDWLNGKEYKCKVSNKALPLPEEKTISKAKGQPREPQVYTLPPSREEMTKNQVSLTCLVKGFYPSDIAVEWESNGQPENNYKTTPPVLDSDGSFFLYSKLTVDKSRWQQGNVFSCSVLHEALHSHYTQKSLSLSPGK
light: DIQMTQSPSSLSASVGDTVTITCQANGYLNWYQQRRGKAPKLLIYDGSKLERGVPSRFSGRRWGQEYNLTINNLQPEDIATYFCQVYEFVVPGTRLDLKRTVAAPSVFIFPPSDEQLKSGTASVVCLLNNFYPREAKVQWKVDNALQSGNSQESVTEQDSKDSTYSLSSTLTLSKADYEKHKVYACEVTHQGLSSPVTKSFNRGEC
ELISA (A450) (HIV gp120 Bal): 0.87 A450 | ELISA (A450) (HIV gp120 CAAN): 0.77 A450

B3: 1.18.1-1 (antibody, human IgG1, kappa)
heavy: QVQLLQSGAAVTKPGASVRVSCEASGYNIRDYFIHWWRQAPGQGLQWVGWINPKHGQPNNPRQFQGRVSLTRHASWDFDTFSFYMDLKALRSDDTAVYFCARQRSDYWDFDVWGSGTQVTVSSASTKGPSVFPLAPSSKSTSGGTAALGCLVKDYFPEPVTVSWNSGALTSGVHTFPAVLQSSGLYSLSSVVTVPSSSLGTQTYICNVNHKPSNTKVDKKVEPKSCDKTHTCPPCPAPELLAGPDVFLFPPKPKDTLMISRTPEVTCVVVDVSHEDPEVKFNWYVDGVEVHNAKTKPREEQYNSTYRVVSVLTVLHQDWLNGKEYKCKVSNKALPLPEEKTISKAKGQPREPQVYTLPPSREEMTKNQVSLTCLVKGFYPSDIAVEWESNGQPENNYKTTPPVLDSDGSFFLYSKLTVDKSRWQQGNVFSCSVLHEALHSHYTQKSLSLSPGK
light: DIQMTQSPSSLSASVGDTVTITCQANGYLNWYQQRRGKAPKLLIYDGSKLERGVPSRFSGRRWGQEYNLTINNLQPEDIATYFCQVYEFVVPGTRLDLKRTVAAPSVFIFPPSDEQLKSGTASVVCLLNNFYPREAKVQWKVDNALQSGNSQESVTEQDSKDSTYSLSSTLTLSKADYEKHKVYACEVTHQGLSSPVTKSFNRGEC
ELISA (A450) (HIV gp120 Bal): 0.97 A450 | ELISA (A450) (HIV gp120 CAAN): 1.18 A450

B4: 1v2-1 (antibody, human IgG1, kappa)
heavy: QVQLLQSGAAVTKPGASVRVSCEASGYNIRDYFIHWWRQAPGQGLQWVGWINPKTGQPNNPRQFQGRVSLTRHASWDFDTYSFYMDLKALRSDDTAVYFCARQRSDYWDFDVWGSGTQVTVSSASTKGPSVFPLAPSSKSTSGGTAALGCLVKDYFPEPVTVSWNSGALTSGVHTFPAVLQSSGLYSLSSVVTVPSSSLGTQTYICNVNHKPSNTKVDKKVEPKSCDKTHTCPPCPAPELLAGPDVFLFPPKPKDTLMISRTPEVTCVVVDVSHEDPEVKFNWYVDGVEVHNAKTKPREEQYNSTYRVVSVLTVLHQDWLNGKEYKCKVSNKALPLPEEKTISKAKGQPREPQVYTLPPSREEMTKNQVSLTCLVKGFYPSDIAVEWESNGQPENNYKTTPPVLDSDGSFFLYSKLTVDKSRWQQGNVFSCSVLHEALHSHYTQKSLSLSPGK
light: DIQMTQSPSSLSASVGDTVTITCQANGYLNWYQQRRGKAPKLLIYDGSKLERGVPSRFSGRRWGQEYNLTINNLQPEDIATYFCQVYEFVVPGTRLDLKRTVAAPSVFIFPPSDEQLKSGTASVVCLLNNFYPREAKVQWKVDNALQSGNSQESVTEQDSKDSTYSLSSTLTLSKADYEKHKVYACEVTHQGLSSPVTKSFNRGEC
ELISA (A450) (HIV gp120 Bal): 1.03 A450 | ELISA (A450) (HIV gp120 CAAN): 1 A450

B5: 1.22.1-1 (antibody, human IgG1, kappa)
heavy: QVQLLQSGAAVTKPGASVRVSCEASGYNIRDYFIHWWRQAPGQGLQWVGWINPKTGQPNNPRQFQGRVSLTRHASTFSFYMDLKALRSDDTAVYFCARQRSDYWDFDVWGSGTQVTVSSASTKGPSVFPLAPSSKSTSGGTAALGCLVKDYFPEPVTVSWNSGALTSGVHTFPAVLQSSGLYSLSSVVTVPSSSLGTQTYICNVNHKPSNTKVDKKVEPKSCDKTHTCPPCPAPELLAGPDVFLFPPKPKDTLMISRTPEVTCVVVDVSHEDPEVKFNWYVDGVEVHNAKTKPREEQYNSTYRVVSVLTVLHQDWLNGKEYKCKVSNKALPLPEEKTISKAKGQPREPQVYTLPPSREEMTKNQVSLTCLVKGFYPSDIAVEWESNGQPENNYKTTPPVLDSDGSFFLYSKLTVDKSRWQQGNVFSCSVLHEALHSHYTQKSLSLSPGK
light: DIQMTQSPSSLSASVGDTVTITCQANGYLNWYQQRRGKAPKLLIYDGSKLERGVPSRFSGRRWGQEYNLTINNLQPEDIATYFCQVYEFVVPGTRLDLKRTVAAPSVFIFPPSDEQLKSGTASVVCLLNNFYPREAKVQWKVDNALQSGNSQESVTEQDSKDSTYSLSSTLTLSKADYEKHKVYACEVTHQGLSSPVTKSFNRGEC
ELISA (A450) (HIV gp120 Bal): 1.03 A450 | ELISA (A450) (HIV gp120 CAAN): 0.87 A450

B6: 1.19.1-1 (antibody, human IgG1, kappa)
heavy: QVQLLQSGAAVTKPGASVRVSCEASGYNIRDYFIHWWRQAPGQGLQWVGWINPKTGQPNNPRQFQGRVTLTRHASWDFDTFSFYMDLKALRSDDTAVYFCARQRSDYWDFDVWGSGTQVTVSSASTKGPSVFPLAPSSKSTSGGTAALGCLVKDYFPEPVTVSWNSGALTSGVHTFPAVLQSSGLYSLSSVVTVPSSSLGTQTYICNVNHKPSNTKVDKKVEPKSCDKTHTCPPCPAPELLAGPDVFLFPPKPKDTLMISRTPEVTCVVVDVSHEDPEVKFNWYVDGVEVHNAKTKPREEQYNSTYRVVSVLTVLHQDWLNGKEYKCKVSNKALPLPEEKTISKAKGQPREPQVYTLPPSREEMTKNQVSLTCLVKGFYPSDIAVEWESNGQPENNYKTTPPVLDSDGSFFLYSKLTVDKSRWQQGNVFSCSVLHEALHSHYTQKSLSLSPGK
light: DIQMTQSPSSLSASVGDTVTITCQANGYLNWYQQRRGKAPKLLIYDGSKLERGVPSRFSGRRWGQEYNLTINNLQPEDIATYFCQVYEFVVPGTRLDLKRTVAAPSVFIFPPSDEQLKSGTASVVCLLNNFYPREAKVQWKVDNALQSGNSQESVTEQDSKDSTYSLSSTLTLSKADYEKHKVYACEVTHQGLSSPVTKSFNRGEC
ELISA (A450) (HIV gp120 Bal): 0.85 A450 | ELISA (A450) (HIV gp120 CAAN): 0.93 A450

B7: 1.17.1-1 (antibody, human IgG1, kappa)
heavy: QVQLLQSGAAVTKPGASVRVSCEASGYNIRDYFIHWWRQAPGQGLQWVGWINPKAGQPNNPRQFQGRVSLTRHASWDFDTFSFYMDLKALRSDDTAVYFCARQRSDYWDFDVWGSGTQVTVSSASTKGPSVFPLAPSSKSTSGGTAALGCLVKDYFPEPVTVSWNSGALTSGVHTFPAVLQSSGLYSLSSVVTVPSSSLGTQTYICNVNHKPSNTKVDKKVEPKSCDKTHTCPPCPAPELLAGPDVFLFPPKPKDTLMISRTPEVTCVVVDVSHEDPEVKFNWYVDGVEVHNAKTKPREEQYNSTYRVVSVLTVLHQDWLNGKEYKCKVSNKALPLPEEKTISKAKGQPREPQVYTLPPSREEMTKNQVSLTCLVKGFYPSDIAVEWESNGQPENNYKTTPPVLDSDGSFFLYSKLTVDKSRWQQGNVFSCSVLHEALHSHYTQKSLSLSPGK
light: DIQMTQSPSSLSASVGDTVTITCQANGYLNWYQQRRGKAPKLLIYDGSKLERGVPSRFSGRRWGQEYNLTINNLQPEDIATYFCQVYEFVVPGTRLDLKRTVAAPSVFIFPPSDEQLKSGTASVVCLLNNFYPREAKVQWKVDNALQSGNSQESVTEQDSKDSTYSLSSTLTLSKADYEKHKVYACEVTHQGLSSPVTKSFNRGEC
ELISA (A450) (HIV gp120 Bal): 0.84 A450 | ELISA (A450) (HIV gp120 CAAN): 0.7 A450

B8: 1.16.1-1 (antibody, human IgG1, kappa)
heavy: QVQLLQSGAAVTKPGASVRVSCEASGYNIRDYFIHWWRQAPGQGLQWVGWINPKGGQPNNPRQFQGRVSLTRHASWDFDTFSFYMDLKALRSDDTAVYFCARQRSDYWDFDVWGSGTQVTVSSASTKGPSVFPLAPSSKSTSGGTAALGCLVKDYFPEPVTVSWNSGALTSGVHTFPAVLQSSGLYSLSSVVTVPSSSLGTQTYICNVNHKPSNTKVDKKVEPKSCDKTHTCPPCPAPELLAGPDVFLFPPKPKDTLMISRTPEVTCVVVDVSHEDPEVKFNWYVDGVEVHNAKTKPREEQYNSTYRVVSVLTVLHQDWLNGKEYKCKVSNKALPLPEEKTISKAKGQPREPQVYTLPPSREEMTKNQVSLTCLVKGFYPSDIAVEWESNGQPENNYKTTPPVLDSDGSFFLYSKLTVDKSRWQQGNVFSCSVLHEALHSHYTQKSLSLSPGK
light: DIQMTQSPSSLSASVGDTVTITCQANGYLNWYQQRRGKAPKLLIYDGSKLERGVPSRFSGRRWGQEYNLTINNLQPEDIATYFCQVYEFVVPGTRLDLKRTVAAPSVFIFPPSDEQLKSGTASVVCLLNNFYPREAKVQWKVDNALQSGNSQESVTEQDSKDSTYSLSSTLTLSKADYEKHKVYACEVTHQGLSSPVTKSFNRGEC
ELISA (A450) (HIV gp120 Bal): 0.92 A450 | ELISA (A450) (HIV gp120 CAAN): 0.87 A450

B9: 1.20.1-1 (antibody, human IgG1, kappa)
heavy: QVQLLQSGAAVTKPGASVRVSCEASGYNIRDYFIHWWRQAPGQGLQWVGWINPKTGQPNNPRQFQGRVTMTRHASWDFDTFSFYMDLKALRSDDTAVYFCARQRSDYWDFDVWGSGTQVTVSSASTKGPSVFPLAPSSKSTSGGTAALGCLVKDYFPEPVTVSWNSGALTSGVHTFPAVLQSSGLYSLSSVVTVPSSSLGTQTYICNVNHKPSNTKVDKKVEPKSCDKTHTCPPCPAPELLAGPDVFLFPPKPKDTLMISRTPEVTCVVVDVSHEDPEVKFNWYVDGVEVHNAKTKPREEQYNSTYRVVSVLTVLHQDWLNGKEYKCKVSNKALPLPEEKTISKAKGQPREPQVYTLPPSREEMTKNQVSLTCLVKGFYPSDIAVEWESNGQPENNYKTTPPVLDSDGSFFLYSKLTVDKSRWQQGNVFSCSVLHEALHSHYTQKSLSLSPGK
light: DIQMTQSPSSLSASVGDTVTITCQANGYLNWYQQRRGKAPKLLIYDGSKLERGVPSRFSGRRWGQEYNLTINNLQPEDIATYFCQVYEFVVPGTRLDLKRTVAAPSVFIFPPSDEQLKSGTASVVCLLNNFYPREAKVQWKVDNALQSGNSQESVTEQDSKDSTYSLSSTLTLSKADYEKHKVYACEVTHQGLSSPVTKSFNRGEC
ELISA (A450) (HIV gp120 Bal): 0.89 A450 | ELISA (A450) (HIV gp120 CAAN): 0.8 A450
